Measurements published in patent US20040180443, “Methods for transfer of DNA segments” (Stratagene, published 2004).

Target: Cre recombinase (Bacteriophage P1?, UniProt P06956 P06956:1-343)
Assay: in vitro loxP x loxP plasmid co-integration, 50 mM Tris pH 7.5, 10 mM MgCl2, 30 mM NaCl, 37 C 45 min; read out by product vector rescue in E. coli (1.2x10^4 and 8.2x10^5 colonies per ug second vector)
Settings: tags: Stratagene; chain copies: 4
Procedure: To rescue the product vector from the co-integrate vector, chemically competent XL1-blue or XL10 gold (kanR) (both strains from Stratagene, LaJolla, Calif.) were transformed with the above recombination reaction. Either strain has high transformation efficiencies and carries the F′ plasmid required to render the host infectable by filamentous phages such as f1. Transformation was performed by mixing 2.5 μl of the recombination reaction with 100 μl of competent cells, incubation on ice for 20 minutes and subsequent hear shock at 42° C. for 45 seconds. After the heat shock, 1 ml of 1×NZY, 10 μl of Exassist helper phage (10⁸ pfu; Stratagene, LaJolla, Calif.) and 100 μl of a fresh stationary culture of XLOLR-S^R were added and incubated for 2 hours at 37° C. while shaking. The XLOLR-S^R strain serves as the secondary host. The secondary host can be selected for with Streptomycin. Exassist is used as a helper phage allowing packaging of the rescued single-stranded product vector. […]
Plasmid DNA of 18 blue colonies were analyzed by restriction digestion. […] All white colonies analyzed by restriction digestion were indistinguishable from the second vector and presumably resulted form mutations in the rpsL insert serving as the negative selectable marker. […]

Cre recombinase, sequence (P06956 whole entry, one chain of several): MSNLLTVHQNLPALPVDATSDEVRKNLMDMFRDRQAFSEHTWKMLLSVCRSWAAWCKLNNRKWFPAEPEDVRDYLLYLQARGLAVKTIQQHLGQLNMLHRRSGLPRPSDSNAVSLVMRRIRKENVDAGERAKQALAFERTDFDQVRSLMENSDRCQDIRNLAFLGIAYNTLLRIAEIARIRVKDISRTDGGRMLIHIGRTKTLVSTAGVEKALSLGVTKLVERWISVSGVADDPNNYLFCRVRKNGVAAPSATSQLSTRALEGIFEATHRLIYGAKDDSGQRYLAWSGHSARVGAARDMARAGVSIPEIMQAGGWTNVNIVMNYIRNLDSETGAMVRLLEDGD

B1: loxP site (wild type) in first and second vectors (dsDNA)
DNA 1: CGAATTGGAGCTATAACTTCGTATAATGTATGCTATACGAAGTTATCATATGGCGGTGGCGGCCGCTCTAGAAC
DNA 2: GTTCTAGAGCGGCCGCCACCGCCATATGATAACTTCGTATAGCATACATTATACGAAGTTATAGCTCCAATTCG
**Q.** Does B1 bind?
**A.** binds
